Data reported in the DeepSol protein solubility set.

Assay: soluble on expression in E. coli; label from the status in PepcDB or PDB records

Sequence | soluble on expression in E. coli
MIAILTDKPNVGKEIARILGAHTREDGYMSGNGYMVTWTFGNMLSLAMPKDYGMDRPERGDFPINPAPFRLMVKHIKTDTGWIPDINAVLQLKVIEKVFDACESIIAATDASREGEMVFRYLYRYLECRKSYRRLWISSLTDEAVLEGMDNLRPGSLYDHMFLAADSRNKADWVLGLNASYALCQATGTGNNSLGRVQTPILAAISSRYRERENHIATDTFPVFISLCKNNTLLKMRCTEEFTDREAAARLYSDCKLAGHARVTAVSRQVREIEPPALYNLTELQKDANNYYGMTAGKSLEIAQKLYEKKLISYPRTAGRFLPRDVYDKLPRIMEKILNRKEFRPYVRSMGINIFDLPDKVVDEGQAAEHHAIIITDTYPEGLNREEMQLYMMIIGRMLEAFMPVCRAEYTTVDAVCAARNFRCHACRIIEKGWFGIFERESVIAGREYGFSPIPQLENGETAAVTGCSLIHRKDLTVSAYTDAELITYMDTAGLGTAATRTGILQTLIDRKYVRYSGKYIIPTRKGLYIYETVRNMKIAETALTSGWEAQLARMERGKLTQEEFMKGVLKLSREVTEDIFRKCER | not soluble
MSSATTNSKIIHATRQHVYEALTQKEALEFWLAPDQMTGKIHDFDLSVGGGYTMSLFYTDNSIKGKTSGNEDRYTSTFIELQPYEKVVHSITFQSEKKEFEEAMIMEVFLEEKGKDVTNVTIFFKNIPAGITPEDNEAGTKESLDKLARYLENNNRSASEKKLEHHHHHH | soluble
MEKETKEKIEKTVIEILSESDMKEITEFKVRKLASEKLAIDLSEKSHKAFVRSVVEKFLDEERAREYENSQVNKEEEDGDKDCGKGNKEFDDDGDLIICRLSDKRRVTIQEFKGKSLVSIREYYKKDGKELPTSKGISLTDEQWSTFKKNMPAIENAVKKMESRV | soluble
MKFINIVGTTASGKTTFARQLALKLNLTHIEMDDLFWLDGWQETPDDEFFLKLKNKMDIAKDGWVLDGNYSRTLHLKLDKLDTMIWLDYSFTLNFYRSVKRAISRIITKEPLWENSNNYESFKQSFLSKNSIILWMINHYAKNRKKYLNMMHDPQYRHIQFIRLTSPKQAKVFLDSL | not soluble
AHHHHHHASAKWVCKICGYIYDEDAGDPDNGISPGTKFEELPDDWVCPICGAPKSEFEKLEDGSRRMDKVDLQLIKILSQNSRLTYRELAEMLGTTRQRVARKVDKLKKLGIIRKFTIIPNLEKLNYMYAILLIKVKATENIYQVAKVLKDHEDVKILELGVGKYNIIAHVLVPKDIKKAQEKVNDVIKEINGIEDLEVEFVSDIPKFELL | soluble
MGSDKIHHHHHHMYQVIANFSFQNFEHDPVILINQIINQWRYNGQIIGREFSVTYHTQPSAHFQVRLATPEQISLMPEWNNDQVTEALSQAAEKGVEFESFEIIGRDYQAEQTSENSNARFYILYTTHLDSCSPLYNGDDFCPVPLYRLLQKDQSLAQALIKWQENWQACDQLQMNGTILEQPALNEISEIDSNLAQLGIKLCREVERVTQVPTYYYLYRLGTDEAVEYQRKCSSCGAEWRLTEPLHQIFHFKCDKCRLISNLSWQLQK | not soluble
MQARKLAVDGAIEFTPRVFADDRGLLILPYQEEAFVEAHGGPLFRVAQTIHSMSKRGVVRGIHYTVTPPGTAKYVYCARGKAMDIVIDIRVGSPTFGQWDSVLMDQQDPRAVYLPVGVGHAFVALEDDTVFSYMASRSYVTQDELALSALDPALGLPIDIGVEPIVSDRDRVAITLAEAQRQGLLPDYTTSQEIERRLTAVPVST | soluble
LDSKTLARRVLVAQMLATANNVYPTSQTFREKLANLYGAQFSTCISKKGKVHIVDIDISFVSDKFILEGKSILGEIIHFLRAALFKPLISVEHYQSKSFDLEKEN | not soluble
MVHYKLTYFLSRGLGDVSRQLFHLADVDFEDERLEKPHFLEKKETYPFKQVPVLSVDGFQIPQSMAIARYLAKKFGFAGKTAEESAMVDAFVDQFKDFYSEIRDYYYTMLGLGLTDLDGDEQKDKVLIPARDKFLPLLTRYLEKSKSGFLVDGGLTFADLIILDNMTSLLNWWPEYANDYPVILAWRDKVMNYPRLKEYIEKRPVTMY | not soluble
MLRQLTFLFPTKFHRGKKLRTQRYRGLQSKEKKKLSLLTTKFSDEAWGDNHKNKVVYRAQDRFHNPLFIVLMVVKKKLDHKKLIDNNSHYHVCI | not soluble
MEGLLIDYVQPGSIAEELEIEAGDRLVAINGQDLRDIIDFSFYAHDEELALEIVKPSGDHWEAEIERDGDEPLGLVFAPPVPAQCGNKCVFCFVHQLPLEHHHHHH | soluble
MNTTPFPALSAETLLAVNTVGQWLAQNDFSGEQPYSSDCVVLAGNAVIPTIDAACRIAKAQGVPLLISGGIGHSTPFLYAVIARHPRYHTIRTSGRAEAAILADIANQFWHIPAEKIWLEDRSTNCGENARFSCALIRQAKENINTAIVVQDPTMQRRTIAAFRRVTNDDTDAPRWLSFPGFVPVLRHLNDGTRFANVEEGIWTVERYLSLIAGELPRLRDDETGYGPRGKDFIIHVDIPRDIENAWQVLQADTTLRSALGQRALRLEHHHHHH | soluble
MKETIIVVHERPDIYDPVFIEGLPGIGLVGKLAAEHLIQELKAKKFAELYSPHFMHQVLIRKGSIVELMKNEFYYWKSPDDEHRDLIIVTGDTQVPPTDSYGHFEVAGKMLDFVQEFGTREIITMGGYQVPELQGEPRVLAAVTHPDLISYYQEKLKDCKVNVMWREDEGGAIVGAAGLLLGIGKLRGMFGISLLGESLGYIVDAKAAKAVLTAVAKILGLEIDMTALEERAKETEEILRKVEEMQRTIMEQQLPRPTHEEEDRGYL | not soluble
MDAIKKKMQAMKIEKDNALDRADAAEEKVRQITEKLERVEEELRDTQKKMTQTGDDLDKAQEDLSAATSKLEEKEKTVQEAEAEVASLNRRMTLLEEELERAEERLKIATEKLEEATHNVDESERVRKVMENRSLQDEERANTVEAQLKEAQLLAEEADRKYDEVARKLAMVEADLERAEERAEAGENKIVELEEELRVVGNNLKSLEVSEEKALQREDSYEEQIRTVSSRLKEAETRAEFAERSVQKLQKEVDRLEDELVHEKERYKTISEELDSTFQELSGY | not soluble
AALSNLSIRTTAHRFMEEMSMYAQAPVALAARDRLNMLYLDVVQTNSTMRRPIGSTLPLHNSSMGRACLAATPKQERYFLLEAIQKREPENWIEIKEKLDIAFDQYAEYGYCLSLGEWQQGINSVAVPLMSTKHGLYVFNCGAPSYALSTEKLIEDIGPRLKYMVNSIQDALTESL | not soluble
PFSFFHWIFIHPESHTESEISEIITHEETHARQYHSADVLVSEIMCTFCWFNPFVWLMKREVRGNLEYMADHRVLETGHDSKSYQYHLL | not soluble
TTILVVRRNGQTVMGGDGQVTFGSTVLKGNARKVRKLGEGKVLAGFAGSVADAMTLFDRFEAKLREWGGNLTKAAVELAKDWRTDRVLRRLEALLLVADKENIFIISGNGEVIQPDDDAAAIGSGGPYALAAAKALLRNTDLSAREIVEKAMTIAGEICIYTNQNIVIEEV | soluble
MDEKLVKEVIFSFREVQRKTHHVLAEEAANREITTTQLLAIRELQKESDLTLGELAERMKLGKSTVSGIVDRLVKAGFLKRTRNESNRRALSLELTEKGATKAAETYHVFFNRLEPILEIGEERLKEMLEMHQEIITILEREGARD | not soluble
MGSDKIHHHHHHMNAVLPRLAMRDIVKSFGSVRVLDGVSLDVMPGEIVALLGSNGAGKSTLMKILTANYTKNAGDIRVNDTLVDFASPRDAARVGITFLPQEISVFPELSVAENICMSADSKGTVDWSGMARRSAAVLDDLGFGHLSPDMLVADLPVAERRIIEIARALEGQADILVMDEPTASLSEQESEQIFTILRRLKDRGTSIVYISHYLKEVFEISDRIVVLRDGLNAGEFDPTTADVTKVVGAMLGKAAGSMFDDRDPLPASAPVVFTCAGLTLPGVIEDVSFDLRAGEILGIFGLIGSGVEVLGRAIFGTQGRPPAGAMTLNGTPYTPVSPRKGKEAGIGFVTAERKTDGIMADMSVRENIVAAFQSDLGHGPFTSPAREAAHTLDWIEKLGIKTSGPEQAIRLLSGGNQQKVCVARWLNPKVKMLILEEPTRGVDVGARREIYSHLVDFARSGLAVLVLSSDVEEVAGLSDRSLVIDRGRILAEFGRGATPGDLMAASAQSEHHD | not soluble
MIALKMFYTEETYEQFFDYGLDYVIDASDTICYKIHLMKECLKRDIPLISSMGAANKTDPTRFQIADISKTHTDPIAKVVRTKLRKEGIKKGVQVIFSDESPIVIREDVRKEVGNDEAKIRKAKMPPSSNAFVPSVAGLIMGGHVVMDLLKDIEIKRVKDK | not soluble
MQSLSPTSRYLQALNEGTHQPDDVQKEAVDRLETLYQALTAKKSSATPPGGLIARLGKLLGKNEPDAQIPVRGLYMWGGVGRGKTWLMDLFYHSLPGERKLRLHFHRFMLRVHEELTALQGQIDPLDIIADRFKTETDVLCFDEFFVTDITDAMLLGGLMKALFARGITLVATSNIPPEELYRNGLQRARFLPAIDAIKQHCDIMNVDAGVDYRLRTLTQAHLWLTPLNDETRRQMDKLWLALAGAAREHAPTLEINHRPLSTLGVENQTLAVSFATLCVEARSQHDYIALSRLFHTVLLFDVPVMTPLMENEARRFIALVDEFYERHVKLVVSAAAPLYEIYQGERLKFEFQRCLSRLQEMQSAEYLKREHMPMAGDPLEHHHHHH | not soluble
MGSDKIHHHHHHMAPASFSQITGQSVGKIGVLFLLLMVLWSANLCNSSDITPLSANRANVGQMVQAFTFDDLFKEDGPSSDLPQRVFRQTSSWRGFSQLEFAETIASPKHASKLRLRSELSNLGQLSPNVKWKLSARIDYDAIYDLSDFYSRQVRRDQRFELFLRENYLDFSIADFDVRVGRQHIVWGEMVGLFFADVVSAKDMREFVLPDFDILRIPQWAVRTEYSKNDFHADLIWIPFASLDEIGRPGADFYPFKLPVAAPVSFLKEDRSGRNVAHSNYGIRLSQLTNGWDVSAFYYHSLDATPTFHRISQPWEPLLFQARHGEIDQAGGTVTKDLGSAVLKGEFVYTHGRRFNVTRPTAADGLVRQDTIDYALGLDFTLPSDIRLNLQFFQRAYLNYDRDIFQDRLENGGSIFLQGDLWRDFQGQILLIHSFNRNEWMLRPRLTWNFARNWKLAAGADIFNGPPTGLFGRFDSSDRVYTELRFSF | not soluble
MSLAKKILVTGAGGYIGRHVVSALLDAGQDVIASDLRLDGVDERATKVQANIFEPNDNLFEELGAPDVCLHMAWRDGFKHNSDNHMGDLSNHYRFLKHMLDSGLKQIAVMGTMHEVGYWEGAIDENTPCHPASMYGIAKNALREATLMLAKEYDATAQWIRAYYIVGDDAHGNSIFSKLLQAANDGKATFPFTTGKNKYDFIDVDELARQISAVVSQDAVDGVINCCTGEPMTLAERVERYIKENDLNIKLDYGAFPDRPYDSPGVWGDASKINKIMKEGHHHHHH | soluble
MKVVVQIKDFDKVPQALRSVINLYNDIKDAEIEVVLHQSAIKALLKDSDTRSIIEDLIKKNILIVGCENSIRSQNLSHDQLIPGIKIVTSGVGEIVRKQSEGWIYLAL | soluble
